Experimental findings from patent publication US20120009171A1 (SHIRE HUMAN GENETIC THERAPIES, published 2012) are described below.

This data set deals with the molecule itself. The data set can be described thus: SEC-HPLC, mobile phase 100 mM sodium citrate pH 5.5 (self-association). The protocol: Waters HPLC systems were used for size exclusion and reversed phase HPLC analyses. For initial SEC-HPLC analysis, 50 μg of rhASA was injected on to an Agilent Zorbax GF-250 column (4.6 mm×250 mm) and run isocratically at 0.24 mL/min using a mobile phase of 100 mM sodium citrate pH 5.5 (octomer detection) with a detection wavelength of 280 nm. The analyses were repeated using mobile phase conditions of 100 mM sodium citrate, pH 7.0 (dimer detection).
Analysis by size exclusion HPLC detected some degradation for the 2 week thermal stressed sample formulated in 5 mM sodium phosphate with 154 mM NaCl at pH 7.0. The degradation was more evident by SEC-HPLC using a pH 5.5 mobile phase condition which induces association of rhASA to an octamer.

B1: recombinant human arylsulfatase A (rhASA) (enzyme)
chain: RPPNIVLIFADDLGYGDLGCYGHPSSTTPNLDQLAAGGLRFTDFYVPVSLCTPSRAALLTGRLPVRMGMYPGVLVPSSRGGLPLEEVTVAEVLAARGYLTGMAGKWHLGVGPEGAFLPPHQGFHRFLGIPYSHDQGPCQNLTCFPPATPCDGGCDQGLVPIPLLANLSVEAQPPWLPGLEARYMAFAHDLMADAQRQDRPFFLYYASHHTHYPQFSGQSFAERSGRGPFGDSLMELDAAVGTLMTAIGDLGLLEETLVIFTADNGPETMRMSRGGCSGLLRCGKGTTYEGGVREPALAFWPGHIAPGVTHELASSLDLLPTLAALAGAPLPNVTLDGFDLSPLLLGTGKSPRQSLFFYPSYPDEVRGVFAVRTGKYKAHFFTQGSAHSDTTADPACHASSSLTAHEPPLLYDLSKDPGENYNLLGGVAGATPEVLQALKQLQLLKAQLDAAVTFGPSQVARGEDPALQICCHPGCTPRPACCHCPDPHA
notes: By SEC-HPLC it associates to an octamer at pH 5.5 and is seen as a dimer at pH 7.0; also called recombinantly-prepared human arylsulfatase A; human ASA
Regarding B1, the binding result was “binds”.
